The values below come from paper doi:10.1101/2021.12.07.471543.

By Kd is commonly meant the free concentration of one partner at which half of the binding sites on the other are occupied at equilibrium, for simple one-to-one binding. Read a high Kd as a looser complex.

The target of the test is C4BPα1-2, a fragment of human C4b-binding protein (C4BP) (human). Briefly: ITC. Background: Isothermal titration calorimetry measures the heat released or taken up as one component is titrated into another.

“Intact M2 protein (mature form), Streptococcus pyogenes strain AP2 (natural protein)”: the Kd turned out to be 4 µM.

Substance “M2G (M2_(53)G), M2 aa 53-86 fused at its C-terminus to a GCN4 coiled-coil sequence” returned a Kd of 4 µM.
